Measured values published in patent US20240352075A1, “PACAP1-23 ANALOG GLYCOPEPTIDES AND METHODS FOR PRODUCING AND USING THE SAME” (priority 2021, published 2024).
Where a SMILES comes first, the peptide text is derived from it. Primed or numbered codes have the meaning given here. Where no end group is shown, it is not given here. [ ]: non-standard residue; d: D form. The star is where a group is joined. ξ: configuration not given here. X2 = OCC1OC(OC2C(CO)OC(*)C(O)C2O)C(O)C(O)C1O; Glc = glucose on Ser (glucosylated Ser); Lac′ = lactose, glycoside on Ser; Nva = CCC[C@H](N)C(=O)O; ξS = NC(CO)C(=O)O; Sar = CNCC(=O)O

T1: PAC1 (Homo sapiens, UniProt P41586)
T1 construct: 3xHA (N)
T1 sequence (P41586 21-468): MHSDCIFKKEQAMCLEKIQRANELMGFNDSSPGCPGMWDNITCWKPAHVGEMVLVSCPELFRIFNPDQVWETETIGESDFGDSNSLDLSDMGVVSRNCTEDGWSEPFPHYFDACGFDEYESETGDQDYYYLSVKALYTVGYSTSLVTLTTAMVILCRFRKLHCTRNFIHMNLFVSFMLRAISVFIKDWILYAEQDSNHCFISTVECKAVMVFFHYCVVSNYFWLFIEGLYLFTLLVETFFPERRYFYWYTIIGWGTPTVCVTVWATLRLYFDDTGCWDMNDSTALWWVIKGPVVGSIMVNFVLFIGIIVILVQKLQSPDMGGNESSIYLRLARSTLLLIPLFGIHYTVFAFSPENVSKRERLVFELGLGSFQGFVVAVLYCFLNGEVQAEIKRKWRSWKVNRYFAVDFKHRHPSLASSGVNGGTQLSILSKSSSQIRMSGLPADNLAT

T2: VPAC1 (Homo sapiens, UniProt P32241)
T2 construct: 3xHA (N)
T2 sequence (P32241 31-457): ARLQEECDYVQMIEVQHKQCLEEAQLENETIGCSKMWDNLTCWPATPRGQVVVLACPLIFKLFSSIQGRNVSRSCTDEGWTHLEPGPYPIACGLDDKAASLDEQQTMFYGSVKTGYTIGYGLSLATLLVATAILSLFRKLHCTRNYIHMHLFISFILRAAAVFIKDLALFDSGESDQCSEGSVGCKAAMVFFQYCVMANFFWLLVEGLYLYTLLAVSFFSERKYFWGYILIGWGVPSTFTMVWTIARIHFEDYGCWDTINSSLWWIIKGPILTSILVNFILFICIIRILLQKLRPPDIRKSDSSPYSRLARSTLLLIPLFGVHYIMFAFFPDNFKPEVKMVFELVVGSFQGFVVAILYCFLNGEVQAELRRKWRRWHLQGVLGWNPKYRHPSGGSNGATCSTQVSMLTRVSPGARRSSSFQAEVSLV

T3: human PAC1 (human, UniProt P41586 21-468)
T3 sequence (looked up): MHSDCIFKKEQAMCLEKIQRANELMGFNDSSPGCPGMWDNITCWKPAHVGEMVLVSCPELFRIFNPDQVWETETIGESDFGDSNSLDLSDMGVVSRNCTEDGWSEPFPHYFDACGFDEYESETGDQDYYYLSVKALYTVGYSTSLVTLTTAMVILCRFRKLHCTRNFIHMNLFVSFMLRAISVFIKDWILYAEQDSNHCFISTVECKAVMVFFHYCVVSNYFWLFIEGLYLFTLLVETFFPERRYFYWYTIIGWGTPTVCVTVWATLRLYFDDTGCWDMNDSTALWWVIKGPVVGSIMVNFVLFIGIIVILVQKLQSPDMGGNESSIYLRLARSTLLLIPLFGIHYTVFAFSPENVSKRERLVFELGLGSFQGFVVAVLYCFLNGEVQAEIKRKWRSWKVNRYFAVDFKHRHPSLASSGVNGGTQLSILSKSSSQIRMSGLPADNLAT

T4: human VPAC1 (human, UniProt P32241 31-457)
T4 sequence (looked up): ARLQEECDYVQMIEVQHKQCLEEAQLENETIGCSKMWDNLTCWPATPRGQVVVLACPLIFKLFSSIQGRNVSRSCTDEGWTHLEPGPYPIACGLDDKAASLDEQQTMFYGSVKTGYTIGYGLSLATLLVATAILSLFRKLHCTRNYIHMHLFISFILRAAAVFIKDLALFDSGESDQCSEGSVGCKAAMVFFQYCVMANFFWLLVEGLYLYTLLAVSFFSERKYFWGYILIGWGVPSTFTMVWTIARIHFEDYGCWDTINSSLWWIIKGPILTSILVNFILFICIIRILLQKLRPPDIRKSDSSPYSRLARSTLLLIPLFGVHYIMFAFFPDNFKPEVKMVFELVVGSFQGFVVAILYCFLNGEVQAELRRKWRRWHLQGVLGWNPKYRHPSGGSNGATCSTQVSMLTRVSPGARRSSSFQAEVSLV

T5: human VPAC2 (human, UniProt P41587 24-438)
T5 sequence (looked up): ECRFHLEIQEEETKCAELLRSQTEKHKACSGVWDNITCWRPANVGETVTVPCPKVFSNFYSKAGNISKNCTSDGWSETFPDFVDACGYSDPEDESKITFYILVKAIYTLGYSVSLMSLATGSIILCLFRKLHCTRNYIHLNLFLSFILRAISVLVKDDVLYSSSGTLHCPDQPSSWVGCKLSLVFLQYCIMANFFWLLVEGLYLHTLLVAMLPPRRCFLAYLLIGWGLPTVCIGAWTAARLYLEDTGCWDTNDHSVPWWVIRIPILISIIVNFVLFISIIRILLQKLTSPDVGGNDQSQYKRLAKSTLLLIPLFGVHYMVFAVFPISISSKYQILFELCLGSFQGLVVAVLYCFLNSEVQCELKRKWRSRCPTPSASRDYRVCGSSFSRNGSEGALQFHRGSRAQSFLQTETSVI


Key:
[1] = target: T1, PAC1; test: cAMP accumulation assay in CHO cells stably expressing PAC1; type: cell-based; conditions: CHO
[2] = target: T2, VPAC1; test: cAMP accumulation assay in CHO cells stably expressing VPAC1; type: cell-based; conditions: CHO
[3] = target: T3, human PAC1; test: cell-based or functional assay
[4] = target: T4, human VPAC1; test: cell-based or functional assay
[5] = target: T4, human VPAC1; test: cell-based or functional assay; remark: listed apart in the source
[6] = target: T5, human VPAC2; test: cell-based or functional assay
[7] = target: T5, human VPAC2; test: cell-based or functional assay; remark: listed apart in the source

| Emax [1] [%] | Emax [2] [%] | cAMP stimulation EC50 [3] [nM] | cAMP stimulation Emax [3] [%] | cAMP stimulation EC50 [4] [nM] | cAMP stimulation Emax [4] [%] | cAMP stimulation Emax (Table 1, differs from Table 3) [5] [%] | cAMP stimulation EC50 [6] [nM] | cAMP stimulation Emax [6] [%] | cAMP stimulation Emax (Table 1, differs from Table 3) [7] [%] | Molecule |
| --- | --- | --- | --- | --- | --- | --- | --- | --- | --- | --- |
| 134 | 90 | – | – | – | – | – | – | – | – | CCC[C@H](NC(=O)[C@H](CCC(N)=O)NC(=O)[C@H](CCCCN)NC(=O)[C@H](CCCNC(=N)N)NC(=O)[C@H](Cc1ccc(O)cc1)NC(=O)[C@H](CCCNC(=N)N)NC(=O)[C@H](CO)NC(=O)[C@H](Cc1ccc(O)cc1)NC(=O)[C@H](CO)NC(=O)[C@H](CC(=O)O)NC(=O)[C@@H](NC(=O)[C@H](Cc1ccccc1)NC(=O)[C@@H](NC(=O)CN(C)C(=O)[C@H](CC(=O)O)NC(=O)[C@H](CO)NC(=O)[C@@H](N)Cc1c[nH]cn1)[C@@H](C)CC)[C@@H](C)O)C(=O)N[C@@H](C)C(=O)N[C@H](C(=O)N[C@@H](CCCCN)C(=O)N[C@@H](CCCCN)C(=O)N[C@@H](Cc1ccc(O)cc1)C(=O)N[C@@H](CC(C)C)C(=O)NC(COC1OC(CO)C(OC2OC(CO)C(O)C(O)C2O)C(O)C1O)C(N)=O)C(C)C (some centres unmarked) [CRA-TG-3027] (H-HSD[Sar]IFTDSYSRYRKQ[Nva]AVKKYL[ξS](X2)-NH2) |
| – | – | 67 | 134 | 195 | 90 | 107 | – | – | – | HSD[Sar]IFTDSYSRYRKQ[Nva]AVKKYLS(Lac′)-NH2 [CRA-TG-3027] |
| – | – | 1.9 | 152 | 26 | 127 | 147 | 7370 | 130 | 128 | HSDGIFTDSYSRYRKQ[Nva]AVKKYLS(Glc)S(Glc)-NH2 [CRA-DV-3024] |
| – | – | 1.8 | – | 21 | – | 118 | – | – | – | HSDGIFTDSYSRYRKQ[Nva]AVKKYLS(Lac′)-NH2 [CRA-TG-3025] |
| – | – | 2.2 | 198 | 5.2 | 94 | 42 | 571 | 91 | 111 | HSDGIFTDSYSRYRKQ[Nva]AVKKYLS-NH2 (not fully specified) [CRA-DV-3022] |
